In assay [1] the target is T1, IL-2-Rβ (IL-2 receptor β chain, R&D Systems) (UniProt P14784 27-239).
T1 construct: also called IL-2-sRβ
T1 sequence (looked up): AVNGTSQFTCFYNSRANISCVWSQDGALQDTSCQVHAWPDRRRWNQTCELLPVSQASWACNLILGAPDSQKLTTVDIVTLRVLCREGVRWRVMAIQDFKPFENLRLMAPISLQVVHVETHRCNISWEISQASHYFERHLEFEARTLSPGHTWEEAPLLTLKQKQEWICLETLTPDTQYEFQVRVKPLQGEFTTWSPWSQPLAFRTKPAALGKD
Put plainly: SPR (Biacore), fusion captured from supernatant on anti-human F(ab)2, 100 nM IL-2-Rβ injected. On the technique in general: Surface plasmon resonance follows binding to a sensor surface in real time, without labels.

The target in assay [2] is T2, IL-15-Rα-hFc (R&D Systems) (UniProt Q13261 31-205).
T2 construct: Bought reagent; not shown: human Fc (hFc)
Put plainly: SPR (Biacore), fusion captured from supernatant on anti-human F(ab)2, 100 nM IL-15-Rα injected.

Assay [3] concerns the target T3, Human serum albumin (HSA), Jackson ImmunoResearch catalog #009-000-051 (human, UniProt P02768 25-609). Briefly: SPR (Biacore), fusion captured from supernatant on anti-human F(ab)2, 1000 nM HSA injected.
The next assay deals with IL-6 (R&D Systems) (UniProt P05231 30-212, limits assumed). Briefly: SPR (Biacore), fusion captured on anti-human F(ab)2, IL-6 alone injected.
Assay [4] deals with T3, Human serum albumin (HSA), Jackson …. Put plainly: SPR (Biacore), fusion captured on anti-human F(ab)2, 1000 nM HSA injected alone or with 100 nM G-CSF-Rα.
In assay [5] the target is T1, IL-2-Rβ (IL-2 receptor β chain, R&D …). Briefly: SPR (Biacore), fusion captured on anti-human F(ab)2, 100 nM IL-2-sRβ injected, with or without premixed 200 nM IL-15.
Assay [6] shares this target. The description is as above. This is another data set of the same source.
The target is the same in assay [7]. Briefly: SPR (Biacore), Fab captured on anti-human F(ab)2, IL-2-Rβ injected.
The target of assay [8] is T4, GM-CSF receptor, cognate for the human GM-CSF constructs (GM-CSF-Ra, R&D Systems) (UniProt P15509 23-320).
T4 construct: also called cognate GM-CSF receptor
T4 sequence (looked up): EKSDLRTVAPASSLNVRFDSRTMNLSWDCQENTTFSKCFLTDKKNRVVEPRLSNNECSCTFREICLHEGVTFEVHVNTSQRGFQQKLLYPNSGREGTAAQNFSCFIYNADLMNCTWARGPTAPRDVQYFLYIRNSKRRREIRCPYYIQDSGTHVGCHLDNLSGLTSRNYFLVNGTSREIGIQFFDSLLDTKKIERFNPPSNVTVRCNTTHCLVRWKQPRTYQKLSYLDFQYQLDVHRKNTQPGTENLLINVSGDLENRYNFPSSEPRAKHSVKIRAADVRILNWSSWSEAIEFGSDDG
Put plainly: SPR (Biacore), Fab captured on anti-human F(ab)2, GM-CSF receptor injected.

Assay [9] addresses T5, GM-CSF receptor, cognate for the murine GM-CSF constructs (UniProt Q00941 30-327).
T5 construct: also called GM-CSF-Ra; cognate GM-CSF receptor
T5 sequence (looked up): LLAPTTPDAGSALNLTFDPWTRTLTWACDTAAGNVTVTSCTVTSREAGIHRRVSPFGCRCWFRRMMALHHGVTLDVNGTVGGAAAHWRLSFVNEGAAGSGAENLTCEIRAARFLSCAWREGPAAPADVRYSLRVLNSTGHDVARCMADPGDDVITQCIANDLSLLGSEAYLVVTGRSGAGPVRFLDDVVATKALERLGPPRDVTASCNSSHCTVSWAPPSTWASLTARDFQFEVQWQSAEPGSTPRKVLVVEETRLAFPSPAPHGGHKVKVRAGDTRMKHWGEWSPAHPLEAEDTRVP
The description is as above.

Assay [10] has as its target T6, EPO-R (EPO receptor, R&D Systems) (UniProt P19235 25-250).
T6 sequence (looked up): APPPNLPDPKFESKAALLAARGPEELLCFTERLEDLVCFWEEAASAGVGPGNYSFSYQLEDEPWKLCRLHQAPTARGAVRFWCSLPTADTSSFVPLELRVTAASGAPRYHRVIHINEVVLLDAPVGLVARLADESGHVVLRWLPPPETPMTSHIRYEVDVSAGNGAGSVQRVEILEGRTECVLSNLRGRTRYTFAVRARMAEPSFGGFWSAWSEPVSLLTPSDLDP
Briefly: SPR (Biacore), Fab captured on anti-human F(ab)2, EPO-R injected.

B1: CA645/IL-15Fwk3 (CA645 Fab with human IL-15 inserted into framework 3 of the VH domain, original linkers) (Fab)
heavy: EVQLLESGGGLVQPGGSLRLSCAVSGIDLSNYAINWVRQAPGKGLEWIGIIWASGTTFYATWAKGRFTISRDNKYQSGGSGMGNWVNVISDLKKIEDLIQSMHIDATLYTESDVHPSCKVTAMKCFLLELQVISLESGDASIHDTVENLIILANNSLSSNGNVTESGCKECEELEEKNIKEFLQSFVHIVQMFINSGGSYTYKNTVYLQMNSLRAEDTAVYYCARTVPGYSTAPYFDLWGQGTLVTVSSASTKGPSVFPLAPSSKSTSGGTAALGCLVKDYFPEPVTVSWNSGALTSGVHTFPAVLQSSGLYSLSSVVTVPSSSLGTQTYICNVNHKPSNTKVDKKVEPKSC
light: DIQMTQSPSSVSASVGDRVTITCQSSPSVWSNFLSWYQQKPGKAPKLLIYEASKLTSGVPSRFSGSGSGTDFTLTISSLQPEDFATYYCGGGYSSISDTTFGGGTKVEIKRTVAAPSVFIFPPSDEQLKSGTASVVCLLNNFYPREAKVQWKVDNALQSGNSQESVTEQDSKDSTYSLSSTLTLSKADYEKHKVYACEVTHQGLSSPVTKSFNRGEC
notes: Tested as HEK293 supernatant diluted 1 in 5, captured on anti-human F(ab)2; also called CA645/IL-15 antibody fusion protein
On to B1, for which the binding result in assay [1], in assay [2] and in assay [3] was “binds” throughout.

B2: CA645/VHH6Fwk3 (CA645 Fab with camelid VHH6 inserted into framework 3 of the VH domain) (bispecific antibody)
heavy: EVQLLESGGGLVQPGGSLRLSCAVSGIDLSNYAINWVRQAPGKGLEWIGIIWASGTTFYATWAKGRFTISRDNSGGGGSGGGGSDVQFVESGGGSVHAGGSLRLNCATSGYIYSTYCMGWFRQAPGKEREGVAHIYTNSGRTYYADSVKGRFTISQDNAKNTVYLQMNSLKPEDTAIYYCAARPSIRCASFSATEYKDWGQGTQVTVSSGGGGSGGGGSKNTVYLQMNSLRAEDTAVYYCARTVPGYSTAPYFDLWGQGTLVTVSSASTKGPSVFPLAPSSKSTSGGTAALGCLVKDYFPEPVTVSWNSGALTSGVHTFPAVLQSSGLYSLSSVVTVPSSSLGTQTYICNVNHKPSNTKVDKKVEPKSC
light: DIQMTQSPSSVSASVGDRVTITCQSSPSVWSNFLSWYQQKPGKAPKLLIYEASKLTSGVPSRFSGSGSGTDFTLTISSLQPEDFATYYCGGGYSSISDTTFGGGTKVEIKRTVAAPSVFIFPPSDEQLKSGTASVVCLLNNFYPREAKVQWKVDNALQSGNSQESVTEQDSKDSTYSLSSTLTLSKADYEKHKVYACEVTHQGLSSPVTKSFNRGEC
notes: also called CA645/VHH6 antibody fusion protein
For B2, in the assay with IL-6 (R&D Systems), the binding result is “no binding (tested: 100 nM)”.

B3: CA645/G-CSFFwk3 (CA645 Fab with human G-CSF inserted into framework 3 of the VH domain) (Fab)
heavy: EVQLLESGGGLVQPGGSLRLSCAVSGIDLSNYAINWVRQAPGKGLEWIGIIWASGTTFYATWAKGRFTISRDNSGGGGSATPLGPASSLPQSFLLKCLEQVRKIQGDGAALQEKLVSECATYKLCHPEELVLLGHSLGIPWAPLSSCPSQALQLAGCLSQLHSGLFLYQGLLQALEGISPELGPTLDTLQLDVADFATTIWQQMEELGMAPALQPTQGAMPAFASAFQRRAGGVLVASHLQSFLEVSYRVLRHLAQPSGGGGKNTVYLQMNSLRAEDTAVYYCARTVPGYSTAPYFDLWGQGTLVTVSSASTKGPSVFPLAPSSKSTSGGTAALGCLVKDYFPEPVTVSWNSGALTSGVHTFPAVLQSSGLYSLSSVVTVPSSSLGTQTYICNVNHKPSNTKVDKKVEPKSC
light: DIQMTQSPSSVSASVGDRVTITCQSSPSVWSNFLSWYQQKPGKAPKLLIYEASKLTSGVPSRFSGSGSGTDFTLTISSLQPEDFATYYCGGGYSSISDTTFGGGTKVEIKRTVAAPSVFIFPPSDEQLKSGTASVVCLLNNFYPREAKVQWKVDNALQSGNSQESVTEQDSKDSTYSLSSTLTLSKADYEKHKVYACEVTHQGLSSPVTKSFNRGEC
notes: also called CA645/G-CSF antibody fusion protein
Consider B3, for which the binding result in assay [4] was “binds”.

B4: CA645/IL-2Fwk3 (CA645 Fab with human IL-2 inserted into framework 3 of the VH domain) (Fab)
heavy: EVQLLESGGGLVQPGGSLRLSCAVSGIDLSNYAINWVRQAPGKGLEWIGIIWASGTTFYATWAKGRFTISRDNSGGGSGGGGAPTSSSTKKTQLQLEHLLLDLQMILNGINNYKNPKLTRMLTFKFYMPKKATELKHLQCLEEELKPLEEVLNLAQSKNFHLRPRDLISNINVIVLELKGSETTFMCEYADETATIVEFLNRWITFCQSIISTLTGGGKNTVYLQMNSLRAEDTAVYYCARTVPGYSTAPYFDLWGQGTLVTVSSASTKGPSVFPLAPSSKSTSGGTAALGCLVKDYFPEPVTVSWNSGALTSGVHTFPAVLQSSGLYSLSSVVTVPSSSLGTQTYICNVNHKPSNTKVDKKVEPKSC
light: DIQMTQSPSSVSASVGDRVTITCQSSPSVWSNFLSWYQQKPGKAPKLLIYEASKLTSGVPSRFSGSGSGTDFTLTISSLQPEDFATYYCGGGYSSISDTTFGGGTKVEIKRTVAAPSVFIFPPSDEQLKSGTASVVCLLNNFYPREAKVQWKVDNALQSGNSQESVTEQDSKDSTYSLSSTLTLSKADYEKHKVYACEVTHQGLSSPVTKSFNRGEC
notes: also called CA645/IL-2 antibody fusion protein
Consider B4, for which the binding result in [5] is “binds”.

B5: CA240/IL-15Fwk3 (anti-IL-6 CA240 Fab with human IL-15 inserted into framework 3 of the VH domain) (Fab)
heavy: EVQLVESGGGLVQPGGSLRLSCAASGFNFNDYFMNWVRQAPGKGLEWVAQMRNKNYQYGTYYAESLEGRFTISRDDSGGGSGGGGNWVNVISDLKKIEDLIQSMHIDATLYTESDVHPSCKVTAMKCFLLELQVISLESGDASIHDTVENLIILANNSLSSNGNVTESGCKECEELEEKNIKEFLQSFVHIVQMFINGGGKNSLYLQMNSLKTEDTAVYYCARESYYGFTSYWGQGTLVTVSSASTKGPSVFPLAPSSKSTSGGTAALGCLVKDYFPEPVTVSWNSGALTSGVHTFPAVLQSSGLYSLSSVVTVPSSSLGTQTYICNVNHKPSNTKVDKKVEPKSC
light: DIQMTQSPSSLSASVGDRVTITCQASQDIGISLSWYQQKPGKAPKLLIYNANNLADGVPSRFSGSGSGTDFTLTISSLQPEDFATYYCLQHNSAPYTFGQGTKLEIKRTVAAPSVFIFPPSDEQLKSGTASVVCLLNNFYPREAKVQWKVDNALQSGNSQESVTEQDSKDSTYSLSSTLTLSKADYEKHKVYACEVTHQGLSSPVTKSFNRGEC
notes: also called CA240/IL-15 antibody fusion protein
Consider B5, for which the binding result in assay [6] was “binds”.

B6: CA645 Fab (unmodified, wild type, anti-human serum albumin) (Fab, V domains shown)
VH: EVQLLESGGGLVQPGGSLRLSCAVSGIDLSNYAINWVRQAPGKGLEWIGIIWASGTTFYATWAKGRFTISRDNSKNTVYLQMNSLRAEDTAVYYCARTVPGYSTAPYFDLWGQGTLVTVSS
VL: DIQMTQSPSSVSASVGDRVTITCQSSPSVWSNFLSWYQQKPGKAPKLLIYEASKLTSGVPSRFSGSGSGTDFTLTISSLQPEDFATYYCGGGYSSISDTTFGGGTKVEIKR
notes: Control without insert polypeptide; also called unmodified CA645 Fab; wild type CA645 Fab
As for B6, the binding result is recorded as “no binding (tested: 100 nM)” in assay [7], “no binding (tested: 100 nM)” in [8], “no binding (tested: 100 nM)” in [9] and “no binding (tested: 50 nM)” in assay [10].

The record behind these values is patent US20220073581A1 (UCB, published 2022).
